Source: patent publication US20160024487

How the values were obtained:
[1] = system: T1, Lys(Dnp)-ATNATX4X3PRIVGG-Lys(Abz), X4 = A, X3 = E
T1 sequence: KATNATAEPRIVGGK

[2] = system: T2, Lys(Dnp)-ATNATX4X3PRIVGG-Lys(Abz), X4 = D, X3 = F
T2 sequence: KATNATDFPRIVGGK

[3] = system: T3, Lys(Dnp)-ATNATX4X3PRIVGG-Lys(Abz), X4 = D, X3 = G
T3 sequence: KATNATDGPRIVGGK

[4] = system: T4, Lys(Dnp)-ATNATX4X3PRIVGG-Lys(Abz), X4 = E, X3 = W
T4 sequence: KATNATEWPRIVGGK

[5] = system: T5, Lys(Dnp)-ATNATX4X3PRIVGG-Lys(Abz), X4 = G, X3 = A
T5 sequence: KATNATGAPRIVGGK

[6] = system: T6, Lys(Dnp)-ATNATX4X3PRIVGG-Lys(Abz), X4 = G, X3 = G
T6 sequence: KATNATGGPRIVGGK

[7] = system: T7, Lys(Dnp)-ATNATX4X3PRIVGG-Lys(Abz), X4 = G, X3 = P
T7 sequence: KATNATGPPRIVGGK

[8] = system: T8, Lys(Dnp)-ATNATX4X3PRIVGG-Lys(Abz), X4 = G, X3 = R
T8 sequence: KATNATGRPRIVGGK

[9] = system: T9, Lys(Dnp)-ATNATX4X3PRIVGG-Lys(Abz), X4 = G, X3 = S
T9 sequence: KATNATGSPRIVGGK

[10] = system: T10, Lys(Dnp)-ATNATX4X3PRIVGG-Lys(Abz), X4 = G, X3 = V
T10 sequence: KATNATGVPRIVGGK

[11] = system: T11, Lys(Dnp)-ATNATX4X3PRIVGG-Lys(Abz), X4 = H, X3 = A
T11 sequence: KATNATHAPRIVGGK

[12] = system: T12, Lys(Dnp)-ATNATX4X3PRIVGG-Lys(Abz), X4 = H, X3 = K
T12 sequence: KATNATHKPRIVGGK

[13] = system: T13, Lys(Dnp)-ATNATX4X3PRIVGG-Lys(Abz), X4 = H, X3 = Q
T13 sequence: KATNATHQPRIVGGK

[14] = system: T14, Lys(Dnp)-ATNATX4X3PRIVGG-Lys(Abz), X4 = H, X3 = S
T14 sequence: KATNATHSPRIVGGK

[15] = system: T15, Lys(Dnp)-ATNATX4X3PRIVGG-Lys(Abz), X4 = H, X3 = W
T15 sequence: KATNATHWPRIVGGK

[16] = system: T16, Lys(Dnp)-ATNATX4X3PRIVGG-Lys(Abz), X4 = H, X3 = Y
T16 sequence: KATNATHYPRIVGGK

[17] = system: T17, Lys(Dnp)-ATNATX4X3PRIVGG-Lys(Abz), X4 = K, X3 = D
T17 sequence: KATNATKDPRIVGGK

[18] = system: T18, Lys(Dnp)-ATNATX4X3PRIVGG-Lys(Abz), X4 = N, X3 = F
T18 sequence: KATNATNFPRIVGGK

[19] = system: T19, Lys(Dnp)-ATNATX4X3PRIVGG-Lys(Abz), X4 = N, X3 = G
T19 sequence: KATNATNGPRIVGGK

[20] = system: T20, Lys(Dnp)-ATNATX4X3PRIVGG-Lys(Abz), X4 = N, X3 = S
T20 sequence: KATNATNSPRIVGGK

[21] = system: T21, Lys(Dnp)-ATNATX4X3PRIVGG-Lys(Abz), X4 = N, X3 = V
T21 sequence: KATNATNVPRIVGGK

[22] = system: T22, Lys(Dnp)-ATNATX4X3PRIVGG-Lys(Abz), X4 = P, X3 = P
T22 sequence: KATNATPPPRIVGGK

[23] = system: T23, Lys(Dnp)-ATNATX4X3PRIVGG-Lys(Abz), X4 = Q, X3 = M
T23 sequence: KATNATQMPRIVGGK

[24] = system: T24, Lys(Dnp)-ATNATX4X3PRIVGG-Lys(Abz), X4 = Q, X3 = Q
T24 sequence: KATNATQQPRIVGGK

[25] = system: T25, Lys(Dnp)-ATNATX4X3PRIVGG-Lys(Abz), X4 = Q, X3 = T
T25 sequence: KATNATQTPRIVGGK

[26] = system: T26, Lys(Dnp)-ATNATX4X3PRIVGG-Lys(Abz), X4 = S, X3 = D
T26 sequence: KATNATSDPRIVGGK

[27] = system: T27, Lys(Dnp)-ATNATX4X3PRIVGG-Lys(Abz), X4 = S, X3 = G
T27 sequence: KATNATSGPRIVGGK

[28] = system: T28, Lys(Dnp)-ATNATX4X3PRIVGG-Lys(Abz), X4 = S, X3 = H
T28 sequence: KATNATSHPRIVGGK

[29] = system: T29, Lys(Dnp)-ATNATX4X3PRIVGG-Lys(Abz), X4 = S, X3 = P
T29 sequence: KATNATSPPRIVGGK

[30] = system: T30, Lys(Dnp)-ATNATX4X3PRIVGG-Lys(Abz), X4 = S, X3 = R
T30 sequence: KATNATSRPRIVGGK

[31] = system: T31, Lys(Dnp)-ATNATX4X3PRIVGG-Lys(Abz), X4 = S, X3 = T
T31 sequence: KATNATSTPRIVGGK

[32] = system: T32, Lys(Dnp)-ATNATX4X3PRIVGG-Lys(Abz), X4 = T, X3 = A
T32 sequence: KATNATTAPRIVGGK

[33] = system: T33, Lys(Dnp)-ATNATX4X3PRIVGG-Lys(Abz), X4 = T, X3 = F
T33 sequence: KATNATTFPRIVGGK

[34] = system: T34, Lys(Dnp)-ATNATX4X3PRIVGG-Lys(Abz), X4 = T, X3 = G
T34 sequence: KATNATTGPRIVGGK

[35] = system: T35, Lys(Dnp)-ATNATX4X3PRIVGG-Lys(Abz), X4 = T, X3 = V
T35 sequence: KATNATTVPRIVGGK

[36] = system: T36, Lys(Dnp)-ATNATX4X3PRIVGG-Lys(Abz), X4 = V, X3 = L
T36 sequence: KATNATVLPRIVGGK

[37] = system: T37, Lys(Dnp)-ATNATX4X3PRIVGG-Lys(Abz), X4 = W, X3 = I
T37 sequence: KATNATWIPRIVGGK

[38] = system: T38, Lys(Dnp)-ATNATX4X3PRIVGG-Lys(Abz), X4 = Y, X3 = D
T38 sequence: KATNATYDPRIVGGK

[39] = system: T39, Lys(Dnp)-ATNATX4X3PRIVGG-Lys(Abz), X4 = Y, X3 = V
T39 sequence: KATNATYVPRIVGGK

Substance: Human plasma purified Factor Xa
- FXa kcat/KM [1]: 180 M⁻¹ s⁻¹
- FXa kcat/KM [2]: 11 M⁻¹ s⁻¹
- FXa kcat/KM [3]: 5.8 M⁻¹ s⁻¹
- FXa kcat/KM [4]: 8 M⁻¹ s⁻¹
- FXa kcat/KM [5]: 50 M⁻¹ s⁻¹
- FXa kcat/KM [6]: 16 M⁻¹ s⁻¹
- FXa kcat/KM [7]: 7.5 M⁻¹ s⁻¹
- FXa kcat/KM [8]: 130 M⁻¹ s⁻¹
- FXa kcat/KM [9]: 49 M⁻¹ s⁻¹
- FXa kcat/KM [10]: 40 M⁻¹ s⁻¹
- FXa kcat/KM [11]: 53 M⁻¹ s⁻¹
- FXa kcat/KM [12]: 28 M⁻¹ s⁻¹
- FXa kcat/KM [13]: 160 M⁻¹ s⁻¹
- FXa kcat/KM [14]: 60 M⁻¹ s⁻¹
- FXa kcat/KM [15]: 320 M⁻¹ s⁻¹
- FXa kcat/KM [16]: 41 M⁻¹ s⁻¹
- FXa kcat/KM [17]: 45 M⁻¹ s⁻¹
- FXa kcat/KM [18]: 14 M⁻¹ s⁻¹
- FXa kcat/KM [19]: 9.2 M⁻¹ s⁻¹
- FXa kcat/KM [20]: 16 M⁻¹ s⁻¹
- FXa kcat/KM [21]: 17 M⁻¹ s⁻¹
- FXa kcat/KM [22]: 14 M⁻¹ s⁻¹
- FXa kcat/KM [23]: 2200 M⁻¹ s⁻¹
- FXa kcat/KM [24]: 1400 M⁻¹ s⁻¹
- FXa kcat/KM [25]: 920 M⁻¹ s⁻¹
- FXa kcat/KM [26]: 10 M⁻¹ s⁻¹
- FXa kcat/KM [27]: 24 M⁻¹ s⁻¹
- FXa kcat/KM [28]: 24 M⁻¹ s⁻¹
- FXa kcat/KM [29]: 13 M⁻¹ s⁻¹
- FXa kcat/KM [30]: 130 M⁻¹ s⁻¹
- FXa kcat/KM [31]: 32 M⁻¹ s⁻¹
- FXa kcat/KM [32]: 20 M⁻¹ s⁻¹
- FXa kcat/KM [33]: 22 M⁻¹ s⁻¹
- FXa kcat/KM [34]: 21 M⁻¹ s⁻¹
- FXa kcat/KM [35]: 20 M⁻¹ s⁻¹
- FXa kcat/KM [36]: 330 M⁻¹ s⁻¹
- FXa kcat/KM [37]: 180 M⁻¹ s⁻¹
- FXa kcat/KM [38]: 36 M⁻¹ s⁻¹
- FXa kcat/KM [39]: 49 M⁻¹ s⁻¹
